Test results from PMC12772958.

Biological target: PLEKHO2
Assay: BioID in situ proximity labelling, streptavidin pulldown, mass spectrometry (LFQ)
Settings: U937 stable cell lines; biotin 24 h; n=3; read off a plot

“BirA*–MYO1F tail (from UniProt O00160) K770A; R780A” showed an enrichment of 5.2.
